Experimental data reported in patent publication EP4471048A1, “PEPTIDE INHIBITORS OF INTERLEUKIN-23 RECEPTOR” (Zealand Pharma A/S, priority 2023, dated 2024).
Read-outs that look alike come from different tables or passages of the source. *1 amine or outer side, *2 acyl side, *3 side chain or, on linkers, in order; H or OH if unused. Bridges are numbered along the chain shown (N, C = ends). [ ]: non-standard residue; d: D form. The star is where a group is joined. K(G) = Lys(Gly): lysine with a glycine on the side-chain amine, (2S)-2-amino-6-[(2-aminoacetyl)amino]hexanoic acid, O=C(CN[*:3])NCCCC[C@H](N[*:1])C(=O)[*:2]; γDab = iso-Dab: Dab joined to preceding residue by its side-chain amine, O=C([C@H](CCN[*:1])N[*:3])[*:2]; 2‑Amino‑6‑carboxyhexanoyl = 2-aminoheptanedioic acid residue; NH(4-(3-pyridyl)butyl) = c1cncc(CCCCN*)c1; NH(2-(3-pyridyl)ethyl) = c1cncc(CCN*)c1; Phe(4-Me) = Cc1ccc(C[C@H](N)C(=O)O)cc1; 2Nal = N[C@@H](Cc1ccc2ccccc2c1)C(=O)O; AEF = NCCOc1ccc(C[C@H](N)C(=O)O)cc1; 3Pal = N[C@@H](Cc1cccnc1)C(=O)O; β3hE = N[C@@H](CCC(=O)O)CC(=O)O; αMeL = CC(C)C[C@](C)(N)C(=O)O; dDab = NCC[C@@H](N)C(=O)O; Orn = NCCC[C@H](N)C(=O)O; Dab = NCC[C@H](N)C(=O)O; Aib = CC(C)(N)C(=O)O; βAla = NCCC(=O)O

T1: human IL-23R endogenously expressed on DB cells (human, UniProt Q5VWK5 24-629)
T1 sequence (looked up): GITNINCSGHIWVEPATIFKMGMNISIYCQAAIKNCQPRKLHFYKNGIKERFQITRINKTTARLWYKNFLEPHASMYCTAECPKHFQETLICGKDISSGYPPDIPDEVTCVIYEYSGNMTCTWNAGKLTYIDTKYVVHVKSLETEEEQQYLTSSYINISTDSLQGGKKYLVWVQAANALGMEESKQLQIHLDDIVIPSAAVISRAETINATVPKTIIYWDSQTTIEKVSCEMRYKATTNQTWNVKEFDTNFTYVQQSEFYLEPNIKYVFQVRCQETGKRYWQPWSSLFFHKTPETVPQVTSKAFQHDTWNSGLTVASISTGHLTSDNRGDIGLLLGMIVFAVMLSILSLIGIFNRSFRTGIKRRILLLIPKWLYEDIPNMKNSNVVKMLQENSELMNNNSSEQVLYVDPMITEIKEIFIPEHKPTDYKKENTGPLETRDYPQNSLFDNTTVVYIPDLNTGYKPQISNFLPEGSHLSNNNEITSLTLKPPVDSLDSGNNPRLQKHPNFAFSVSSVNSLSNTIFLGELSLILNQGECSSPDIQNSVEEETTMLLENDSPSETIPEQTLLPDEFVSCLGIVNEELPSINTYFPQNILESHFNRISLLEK

T2: Nluc-IL23R fusion protein (human, UniProt Q5VWK5 22-629)
T2 construct: range 22-629; Stably expressed in HEK293 cells; also called hIL-23R; human IL-23R; not shown: Nanoluc protein (N1371, Promega) at the N-terminus, after a secretion signal
T2 sequence (looked up): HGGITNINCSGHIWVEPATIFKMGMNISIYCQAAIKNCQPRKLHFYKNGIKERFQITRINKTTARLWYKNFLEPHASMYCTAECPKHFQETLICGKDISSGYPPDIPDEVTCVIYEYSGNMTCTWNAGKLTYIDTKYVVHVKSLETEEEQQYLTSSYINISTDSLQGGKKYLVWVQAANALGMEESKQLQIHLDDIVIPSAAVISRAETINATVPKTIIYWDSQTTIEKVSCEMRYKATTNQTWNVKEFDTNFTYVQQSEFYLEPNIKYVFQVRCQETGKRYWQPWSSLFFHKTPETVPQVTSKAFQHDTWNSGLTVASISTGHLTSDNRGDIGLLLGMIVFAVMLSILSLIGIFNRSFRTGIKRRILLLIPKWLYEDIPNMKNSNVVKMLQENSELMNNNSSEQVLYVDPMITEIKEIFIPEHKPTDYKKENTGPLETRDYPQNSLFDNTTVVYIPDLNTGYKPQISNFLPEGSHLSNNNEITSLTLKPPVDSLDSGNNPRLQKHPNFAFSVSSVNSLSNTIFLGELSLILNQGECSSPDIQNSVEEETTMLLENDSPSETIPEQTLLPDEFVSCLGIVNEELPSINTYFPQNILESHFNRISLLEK

B1: Compound 17 (peptide)
peptide: KIVWQE[Phe(4-Me)][2Nal][Aib]E[Dab][3Pal]-NH2
modifications: lactam 1-10, N-6
SMILES: CC[C@H](C)[C@@H]1NC(=O)[C@@H]2CCCCNC(=O)CC[C@@H](C(=O)N[C@@H](CCN)C(=O)N[C@@H](Cc3cccnc3)C(N)=O)NC(=O)C(C)(C)NC(=O)[C@H](Cc3ccc4ccccc4c3)NC(=O)[C@H](Cc3ccc(C)cc3)NC(=O)[C@H](CCC(=O)N2)NC(=O)[C@H](CCC(N)=O)NC(=O)[C@H](Cc2c[nH]c3ccccc23)NC(=O)[C@H](C(C)C)NC1=O
B2: Compound 2 (peptide)
peptide: KTVWQE[AEF][2Nal][αMeL]E[Dab][3Pal]-NH2
modifications: lactam 1-10, N-6
SMILES: CC(C)C[C@]1(C)NC(=O)[C@H](Cc2ccc3ccccc3c2)NC(=O)[C@H](Cc2ccc(OCCN)cc2)NC(=O)[C@@H]2CCC(=O)N[C@@H](CCCCNC(=O)CC[C@@H](C(=O)N[C@@H](CCN)C(=O)N[C@@H](Cc3cccnc3)C(N)=O)NC1=O)C(=O)N[C@@H]([C@@H](C)O)C(=O)N[C@@H](C(C)C)C(=O)N[C@@H](Cc1c[nH]c3ccccc13)C(=O)N[C@@H](CCC(N)=O)C(=O)N2
B3: Compound 3 (peptide)
peptide: [dK]TVWQD[AEF][2Nal][αMeL]E[Dab][3Pal]-NH2
modifications: lactam 1-10, N-6
SMILES: CC(C)C[C@]1(C)NC(=O)[C@H](Cc2ccc3ccccc3c2)NC(=O)[C@H](Cc2ccc(OCCN)cc2)NC(=O)[C@@H]2CC(=O)N[C@H](CCCCNC(=O)CC[C@@H](C(=O)N[C@@H](CCN)C(=O)N[C@@H](Cc3cccnc3)C(N)=O)NC1=O)C(=O)N[C@@H]([C@@H](C)O)C(=O)N[C@@H](C(C)C)C(=O)N[C@@H](Cc1c[nH]c3ccccc13)C(=O)N[C@@H](CCC(N)=O)C(=O)N2
B4: Compound 36 (peptide)
peptide: KTWQE[AEF][2Nal][αMeL]E[Dab][3Pal]-NHMe
modifications: lactam 1-9, N-5
SMILES: CNC(=O)[C@H](Cc1cccnc1)NC(=O)[C@H](CCN)NC(=O)[C@@H]1CCC(=O)NCCCC[C@@H]2NC(=O)CC[C@H](NC(=O)[C@H](CCC(N)=O)NC(=O)[C@H](Cc3c[nH]c4ccccc34)NC(=O)[C@H]([C@@H](C)O)NC2=O)C(=O)N[C@@H](Cc2ccc(OCCN)cc2)C(=O)N[C@@H](Cc2ccc3ccccc3c2)C(=O)N[C@@](C)(CC(C)C)C(=O)N1
B5: Compound 39 (peptide)
peptide: ETWQE[AEF][2Nal][αMeL]K[Dab][3Pal]-NHMe
modifications: lactam 1-9, N-5
SMILES: CNC(=O)[C@H](Cc1cccnc1)NC(=O)[C@H](CCN)NC(=O)[C@@H]1CCCCNC(=O)CC[C@@H]2NC(=O)CC[C@H](NC(=O)[C@H](CCC(N)=O)NC(=O)[C@H](Cc3c[nH]c4ccccc34)NC(=O)[C@H]([C@@H](C)O)NC2=O)C(=O)N[C@@H](Cc2ccc(OCCN)cc2)C(=O)N[C@@H](Cc2ccc3ccccc3c2)C(=O)N[C@@](C)(CC(C)C)C(=O)N1
B6: Compound 44 (peptide)
peptide: KGWQE[AEF][2Nal][αMeL]E[Dab][3Pal]-NHMe
modifications: lactam 1-9, N-5
SMILES: CNC(=O)[C@H](Cc1cccnc1)NC(=O)[C@H](CCN)NC(=O)[C@@H]1CCC(=O)NCCCC[C@@H]2NC(=O)CC[C@H](NC(=O)[C@H](CCC(N)=O)NC(=O)[C@H](Cc3c[nH]c4ccccc34)NC(=O)CNC2=O)C(=O)N[C@@H](Cc2ccc(OCCN)cc2)C(=O)N[C@@H](Cc2ccc3ccccc3c2)C(=O)N[C@@](C)(CC(C)C)C(=O)N1
B7: Compound 45 (peptide)
peptide: K[βAla]WQE[AEF][2Nal][αMeL]E[Dab][3Pal]-NHMe
modifications: lactam 1-9, N-5
SMILES: CNC(=O)[C@H](Cc1cccnc1)NC(=O)[C@H](CCN)NC(=O)[C@@H]1CCC(=O)NCCCC[C@@H]2NC(=O)CC[C@H](NC(=O)[C@H](CCC(N)=O)NC(=O)[C@H](Cc3c[nH]c4ccccc34)NC(=O)CCNC2=O)C(=O)N[C@@H](Cc2ccc(OCCN)cc2)C(=O)N[C@@H](Cc2ccc3ccccc3c2)C(=O)N[C@@](C)(CC(C)C)C(=O)N1
B8: Compound 46 (peptide)
peptide: [K(G)]WQE[AEF][2Nal][αMeL]E[Dab][3Pal]-NHMe
modifications: lactam 1-8, N-4
SMILES: CNC(=O)[C@H](Cc1cccnc1)NC(=O)[C@H](CCN)NC(=O)[C@@H]1CCC(=O)NCC(=O)NCCCC[C@@H]2NC(=O)CC[C@H](NC(=O)[C@H](CCC(N)=O)NC(=O)[C@H](Cc3c[nH]c4ccccc34)NC2=O)C(=O)N[C@@H](Cc2ccc(OCCN)cc2)C(=O)N[C@@H](Cc2ccc3ccccc3c2)C(=O)N[C@@](C)(CC(C)C)C(=O)N1
B9: Compound 65 (peptide)
peptide: KIVWQE[AEF][2Nal][αMeL][β3hE]-{NH(2-(3-pyridyl)ethyl)}
modifications: lactam 1-10, N-6
B10: Compound 9 (peptide)
peptide: [dDab]TVWQD[AEF][2Nal][αMeL][2‑Amino‑6‑carboxyhexanoyl][Dab][3Pal]-NH2
modifications: lactam 1-10, N-6
B11: Compound 61 (peptide)
peptide: KIVWQE[AEF][2Nal][αMeL][β3hE][3Pal]-NHMe
modifications: lactam 1-10, N-6
notes: The partner of the (1c) bridge is printed as (cyclo1)
B12: Compound 74 (peptide)
peptide: EIVWQEXXXXXX
modifications: E(1c)(6c)^†IVWQE(6c)[Y(2-aminoethoxy)][2-Nal][2-Me-Leu][K(Me)](1c)[Dab][3-(3-Pyridyl)-Ala]-[NHMe]; (1c) [2,11] lactam; (6c) [2,7] lactam; ^† alpha-amine in bridge
B13: Compound 107 (peptide)
peptide: EWQEXXXXXX
modifications: [iso-Glu](1c)^‡(6c)^†WQE(6c)[Y(2-aminoethoxy)][2-Nal][2-Me-Leu][Dab](1c)[Dab][3-(3-Pyridyl)-Ala]-[NHMe]; (1c) [2,11] lactam; (6c) [2,7] lactam; ^† alpha-amine in bridge; ^‡ alpha-carboxylic acid in bridge
B14: Compound 15 (peptide)
peptide: [dDab]TWQD[AEF][2Nal][αMeL][2‑Amino‑6‑carboxyhexanoyl][Dab][3Pal]-NH2
modifications: lactam 1-9, N-5
B15: Compound 25 (peptide)
peptide: KTVWQE[Phe(4-Me)][2Nal][αMeL][γDab](6‑(3-pyridyl)hexanoyl)
modifications: lactam 1-C, N-6; also: iso-Dab joined to preceding residue via its side-chain amine
B16: Compound 31 (peptide)
peptide: KSVWQE[AEF][2Nal]GE-{NH(4-(3-pyridyl)butyl)}
modifications: lactam 1-10, N-6
SMILES: CC(C)[C@@H]1NC(=O)[C@H](CO)NC(=O)[C@@H]2CCCCNC(=O)CC[C@@H](C(=O)NCCCCc3cccnc3)NC(=O)CNC(=O)[C@H](Cc3ccc4ccccc4c3)NC(=O)[C@H](Cc3ccc(OCCN)cc3)NC(=O)[C@H](CCC(=O)N2)NC(=O)[C@H](CCC(N)=O)NC(=O)[C@H](Cc2c[nH]c3ccccc23)NC1=O
B17: Compound 40 (peptide)
peptide: ETWQE[AEF][2Nal][αMeL][Orn][Dab][3Pal]-NHMe
modifications: lactam 1-9, N-5

Columns and labels:
[1] = target: T1, human IL-23R endogenously expressed on …; experiment: cell-based or functional assay
[2] = target: T2, Nluc-IL23R fusion protein; experiment: BRET competition vs TAMRA-labelled peptide, Nluc-IL23R membranes
[3] = target: T2, Nluc-IL23R fusion protein; experiment: as above; remark: listed apart in the source

Binder | hIL-23 (pSTAT3) antagonist % inhibition [1] [%] | hIL-23 (pSTAT3) antagonist IC50 [1] | % displacement [2] [%] | IC50 [2] [nM] | % displacement [3] [%] | IC50 [3] [nM]
B1 | 99 | 2.9 nM | 107 | 0.092 |  | 
B2 | 99 | 0.11 nM | 100 |  |  | 
B3 | 101 | 1.5 nM | 105 |  |  | 
B4 | 97 | 1.1 nM | 100 |  |  | 
B5 | 99 | 2.4 nM | 98 |  |  | 
B6 | 100 | 15 nM | 100 |  |  | 
B7 | 100 | 58 pM | 100 |  |  | 
B8 | 102 | 25 nM | 104 |  |  | 
B9 |  |  |  |  | 99 | 
B10 |  |  |  |  | 103 | 
B11 |  |  |  |  | 99 | 
B12 |  |  |  |  | 99 | 0.076
B13 |  |  |  |  | 97 | 14
B14 |  |  |  |  | 105 | 4.9
B15 |  |  |  |  | 91 | 840
B16 |  |  |  |  | 98 | 49
B17 |  |  |  |  | 100 | 
